{
  "source": "patent US20180250358A1",
  "about": "“GHRH AGONISTS FOR THE TREATMENT OF ISCHEMIC DISORDERS” (published 2018)",
  "binders": {"B1": {"name": "P-20351 [Ac-N-Me-Tyr^1, D-Ala^2, Gln^8, Orn^12, Abu^15, Orn^21, Nle^27, Asp^28, Agm^29]hGHRH(1-29)NH2 (peptide)", "peptide": "Ac-[NMeY][dA]DAIFTQSYR[Orn]VL[Abu]QLSAR[Orn]LLQDI[Nle]D[Agmatine]", "SMILES": "CCCC[C@H](NC(=O)[C@@H](NC(=O)[C@H](CC(=O)O)NC(=O)[C@H](CCC(N)=O)NC(=O)[C@H](CC(C)C)NC(=O)[C@H](CC(C)C)NC(=O)[C@H](CCCN)NC(=O)[C@H](CCCNC(=N)N)NC(=O)[C@H](C)NC(=O)[C@H](CO)NC(=O)[C@H](CC(C)C)NC(=O)[C@H](CCC(N)=O)NC(=O)[C@H](CC)NC(=O)[C@H](CC(C)C)NC(=O)[C@@H](NC(=O)[C@H](CCCN)NC(=O)[C@H](CCCNC(=N)N)NC(=O)[C@H](Cc1ccc(O)cc1)NC(=O)[C@H](CO)NC(=O)[C@H](CCC(N)=O)NC(=O)[C@@H](NC(=O)[C@H](Cc1ccccc1)NC(=O)[C@@H](NC(=O)[C@H](C)NC(=O)[C@H](CC(=O)O)NC(=O)[C@@H](C)NC(=O)[C@H](Cc1ccc(O)cc1)N(C)C(C)=O)[C@@H](C)CC)[C@@H](C)O)C(C)C)[C@@H](C)CC)C(=O)N[C@@H](CC(=O)O)C(=O)NCCCCNC(=N)N"}, "B2": {"name": "P-27407 [Dat^1, Gln^8, Orn^12, Abu^15, Orn^21, Nle^27, Asp^28]hGHRH(1-29)NH-CH3 (peptide)", "peptide": "[Desaminotyrosyl]ADAIFTQSYR[Orn]VL[Abu]QLSAR[Orn]LLQDI[Nle]DR-NHMe", "SMILES": "CCCC[C@H](NC(=O)[C@@H](NC(=O)[C@H](CC(=O)O)NC(=O)[C@H](CCC(N)=O)NC(=O)[C@H](CC(C)C)NC(=O)[C@H](CC(C)C)NC(=O)[C@H](CCCN)NC(=O)[C@H](CCCNC(=N)N)NC(=O)[C@H](C)NC(=O)[C@H](CO)NC(=O)[C@H](CC(C)C)NC(=O)[C@H](CCC(N)=O)NC(=O)[C@H](CC)NC(=O)[C@H](CC(C)C)NC(=O)[C@@H](NC(=O)[C@H](CCCN)NC(=O)[C@H](CCCNC(=N)N)NC(=O)[C@H](Cc1ccc(O)cc1)NC(=O)[C@H](CO)NC(=O)[C@H](CCC(N)=O)NC(=O)[C@@H](NC(=O)[C@H](Cc1ccccc1)NC(=O)[C@@H](NC(=O)[C@H](C)NC(=O)[C@H](CC(=O)O)NC(=O)[C@H](C)NC(=O)CCc1ccc(O)cc1)[C@@H](C)CC)[C@@H](C)O)C(C)C)[C@@H](C)CC)C(=O)N[C@@H](CC(=O)O)C(=O)N[C@@H](CCCNC(=N)N)C(=O)NC"}},
  "note": "Non-standard residues stand in square brackets, D forms with d. No end group written: not given here. *: point of attachment. Desaminotyrosyl = O=C(CCc1ccc(O)cc1)*; NMeY = CN[C@@H](Cc1ccc(O)cc1)C(=O)O; Agmatine = N=C(N)NCCCCN*; Nle = CCCC[C@H](N)C(=O)O; Orn = NCCC[C@H](N)C(=O)O; Abu = CC[C@H](N)C(=O)O",
  "data": [
    {"molecular_target": "T1, GHRH receptor of human pituitary membranes (human, UniProt Q02643)", "T1 sequence": "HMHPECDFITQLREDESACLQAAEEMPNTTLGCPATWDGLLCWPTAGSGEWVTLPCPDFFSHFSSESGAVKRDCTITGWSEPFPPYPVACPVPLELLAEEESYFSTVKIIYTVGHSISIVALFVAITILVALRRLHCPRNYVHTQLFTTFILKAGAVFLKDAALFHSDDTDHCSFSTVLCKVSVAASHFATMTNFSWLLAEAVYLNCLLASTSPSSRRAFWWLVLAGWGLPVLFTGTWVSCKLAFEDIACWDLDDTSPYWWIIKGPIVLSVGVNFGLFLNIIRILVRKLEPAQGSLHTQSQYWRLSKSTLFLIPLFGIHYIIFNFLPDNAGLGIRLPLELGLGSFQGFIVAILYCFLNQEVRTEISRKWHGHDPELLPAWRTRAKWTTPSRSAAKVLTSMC", "test": "competition vs 125I-[His1,Nle27]hGHRH(1-32)NH2, human pituitary membranes", "units": {"IC50": "nM", "relative affinity (binding potency) compared to JI-38": "vs JI-38=1"}, "source_text": "Normal human pituitary was purchased from the National Hormone and Peptide Program (UCLA Medical Center, Torrance, Calif.).", "values": [
      {"binder": "B1", "IC50": 3.87, "relative affinity (binding potency) compared to JI-38": 0.71, "relative affinity (binding potency) compared to hGHRH(1-29)": "1.98 vs hGHRH(1-29)NH2=1"},
      {"binder": "[NMeY]ADAIFTQSYR[Orn]VL[Abu]QLSAR[Orn]LLQDI[Nle]SR-NHMe", "note": "[P-27405 [N-Me-Tyr^1, Gln^8, Orn^12, Abu^15, Orn^21, Nle^27]hGHRH(1-29)NH-CH3]", "relative affinity (binding potency) compared to JI-38": 1.09, "relative affinity (binding potency) compared to hGHRH(1-29)": "3.04 vs hGHRH(1-29)NH2=1"},
      {"binder": "[NMeY][dA]DAIFTTSYR[Orn]VL[Abu]QLSAR[Orn]LLQDI[Nle]DR-NHMe", "note": "[P-27410 [N-Me-Tyr^1, D-Ala^2, Thr^8, Orn^12, Abu^15, Orn^21, Nle^27, Asp^28]hGHRH(1-29)NH-CH3]", "IC50": 1.28, "relative affinity (binding potency) compared to JI-38": 2.14, "relative affinity (binding potency) compared to hGHRH(1-29)": "5.98 vs hGHRH(1-29)NH2=1"},
      {"binder": "[NMeY][dA]DAIFTNSYR[Orn]VL[Abu]QLSAR[Orn]LLQDI[Nle]DR-NHMe", "note": "[P-27409 [N-Me-Tyr^1, D-Ala^2, Orn^12, Abu^15, Orn^21, Nle^27, Asp^28]hGHRH(1-29)NH-CH3]", "IC50": 1.01, "relative affinity (binding potency) compared to JI-38": 2.71, "relative affinity (binding potency) compared to hGHRH(1-29)": "7.57 vs hGHRH(1-29)NH2=1"},
      {"binder": "[NMeY][dA]DAIFTNSYR[Orn]VL[Abu]QLSAR[Orn]LLQDI[Nle]DR-NHEt", "note": "[P-28421 [N-Me-Tyr^1, D-Ala^2, Orn^12, Abu^15, Orn^21, Nle^27, Asp^28]hGHRH(1-29)NH-CH2-CH3]", "IC50": 3.05, "relative affinity (binding potency) compared to JI-38": 0.9, "relative affinity (binding potency) compared to hGHRH(1-29)": "2.5 vs hGHRH(1-29)NH2=1"},
      {"binder": "B2", "relative affinity (binding potency) compared to JI-38": 0.54, "relative affinity (binding potency) compared to hGHRH(1-29)": "1.52 vs hGHRH(1-29)NH2=1"},
      {"binder": "[NMeY]ADAIFTQSYR[Orn]VL[Abu]QLSAR[Orn]LLQDI[Nle]DR-NHMe", "note": "[P-27406 [N-Me-Tyr^1, Gln^8, Orn^12, Abu^15, Orn^21, Nle^27, Asp^28]hGHRH(1-29)NH-CH3]", "relative affinity (binding potency) compared to JI-38": 2.95, "relative affinity (binding potency) compared to hGHRH(1-29)": "8.22 vs hGHRH(1-29)NH2=1"}
    ]},
    {"molecular_target": "T1, GHRH receptor of human pituitary …", "test": "competition vs 125I-JV-1-42, human pituitary membranes;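 also: pituitaries used were normal human glands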", "units": {"IC50": "nM", "relative affinity (binding potency) vs JI-38": "vs JI-38=1"}, "source_text": "Normal human pituitaries were purchased from the National Hormone and Peptide Program (A.F. Parlow, Los Angeles, County Harbor-UCLA Medical Center, Torrance, Calif.).", "values": [
      {"binder": "B1", "IC50": 3.44, "relative affinity (binding potency) vs JI-38": 1.26},
      {"binder": "[NMeY]ADAIFTQSYR[Orn]VL[Abu]QLSAR[Orn]LLQDI[Nle]SR-NHMe", "note": "[P-27405 [N-Me-Tyr^1, Gln^8, Orn^12, Abu^15, Orn^21, Nle^27]hGHRH(1-29)NH-CH3]", "IC50": 1.08, "relative affinity (binding potency) vs JI-38": 4.03},
      {"binder": "[NMeY][dA]DAIFTTSYR[Orn]VL[Abu]QLSAR[Orn]LLQDI[Nle]DR-NHMe", "note": "[P-27410 [N-Me-Tyr^1, D-Ala^2, Thr^8, Orn^12, Abu^15, Orn^21, Nle^27, Asp^28]hGHRH(1-29)NH-CH3]", "IC50": 0.83, "relative affinity (binding potency) vs JI-38": 5.24},
      {"binder": "[NMeY][dA]DAIFTNSYR[Orn]VL[Abu]QLSAR[Orn]LLQDI[Nle]DR-NHMe", "note": "[P-27409 [N-Me-Tyr^1, D-Ala^2, Orn^12, Abu^15, Orn^21, Nle^27, Asp^28]hGHRH(1-29)NH-CH3]", "IC50": 1.06, "relative affinity (binding potency) vs JI-38": 4.1},
      {"binder": "[NMeY][dA]DAIFTNSYR[Orn]VL[Abu]QLSAR[Orn]LLQDI[Nle]DR-NHEt", "note": "[P-28421 [N-Me-Tyr^1, D-Ala^2, Orn^12, Abu^15, Orn^21, Nle^27, Asp^28]hGHRH(1-29)NH-CH2-CH3]", "IC50": 1.47, "relative affinity (binding potency) vs JI-38": 2.96},
      {"binder": "B2", "IC50": 3, "relative affinity (binding potency) vs JI-38": 1.45},
      {"binder": "[NMeY]ADAIFTQSYR[Orn]VL[Abu]QLSAR[Orn]LLQDI[Nle]DR-NHMe", "note": "[P-27406 [N-Me-Tyr^1, Gln^8, Orn^12, Abu^15, Orn^21, Nle^27, Asp^28]hGHRH(1-29)NH-CH3]", "IC50": 0.3, "relative affinity (binding potency) vs JI-38": 14.5}
    ]}
  ]
}
